Source: FireProtDB (doi:10.1016/s0022-2836(03)00043-3)

B1: Cyclin-dependent kinase inhibitor 2A, P42771 (parent)
chain: MEPAAGSSMEPSADWLATAAARGRVEEVRALLEAGALPNAPNSYGRRPIQVMMMGSARVAELLLLHGAEPNCADPATLTRPVHDAAREGFLDTLVVLHRAGARLDVRDAWGRLPVDLAEELGHRDVARYLRAAAGGTRGSNHARIDAAEGPSDIPD

Variants of: B1
Conditions: Homo sapiens, pH 8.5, CD, Tris 10 mM, reversible: yes, structure 1A5E, whole UniProt chain shown; for ddG of mutation (higher = less stable) / denaturant m value / denaturant midpoint (higher = more stable) / unfolding free energy: 20 °C, Urea; for Tm / change of melting temperature, mutant - wild type (higher = more stable): Thermal

For L37S, which “ddG of mutation (higher = less stable)” value is on record?
Its value is -0.71 kcal/mol.

And the denaturant m value?
Its denaturant m value is 1.82 kcal/mol/M.

And the “denaturant midpoint (higher = more stable)” value (“denaturant midpoint” for short)?
Its value is 2.4 M.

And the unfolding free energy?
Its unfolding free energy is 4.05 kcal/mol.

What about the Tm of the same variant?
Its Tm is 50.3 °C.

What about the “change of melting temperature, mutant - wild type (higher = more stable)” value (from here on “change of melting temperature, mutant”) of the same variant?
Its value is 4.3 °C.

With A73E as the variant, how does the Tm read?
The Tm was 46.2 °C.

What about the “change of melting temperature, mutant” value of the same variant?
The value was 0.2 °C.

With R128E as the variant, how does the Tm read?
Its Tm is 47.6 °C.

And the “change of melting temperature, mutant” value?
The value was 1.6 °C.

Which results are given for V95K?
Tm: 47 °C; change of melting temperature, mutant - wild type (higher = more stable): 1 °C

What does the source list for T18R?
Tm: 45 °C; change of melting temperature, mutant - wild type (higher = more stable): -1 °C

For R124D, which Tm is on record?
Its Tm is 45.6 °C.

What about the “change of melting temperature, mutant” value of the same variant?
Its value is -0.4 °C.

With L121R as the variant, how does the “ddG of mutation (higher = less stable)” value read?
The value was -0.66 kcal/mol.

And the denaturant m value?
Its denaturant m value is 1.61 kcal/mol/M.

And the “denaturant midpoint” value?
The value was 2.4 M.

And the unfolding free energy?
The unfolding free energy was 4 kcal/mol.

What about the Tm of the same variant?
The Tm was 50.4 °C.

And the “change of melting temperature, mutant” value?
Its value is 4.4 °C.

With W15D L37S L121R as the variant, how does the “ddG of mutation (higher = less stable)” value read?
Its value is -1.42 kcal/mol.

And the denaturant m value?
The denaturant m value was 1.56 kcal/mol/M.

What about the “denaturant midpoint” value of the same variant?
The value was 2.8 M.

And the unfolding free energy?
The unfolding free energy was 4.77 kcal/mol.

With W15D as the variant, how does the “ddG of mutation (higher = less stable)” value read?
Its value is -0.17 kcal/mol.

And the denaturant m value?
The denaturant m value was 1.74 kcal/mol/M.

And the “denaturant midpoint” value?
Its value is 2.1 M.

And the unfolding free energy?
The unfolding free energy was 3.52 kcal/mol.

Which Tm does the source give for L65K here?
The Tm was 47.2 °C.

And the “change of melting temperature, mutant” value?
The value was 1.2 °C.
